# Data from ChEMBL document CHEMBL1221387, “Prenylflavonoids from Glycyrrhiza uralensis and their protein tyrosine phosphatase-1B inhibitory activities” (Bioorg Med Chem Lett, 2010).
# B1: Tyrosine-protein phosphatase non-receptor type 1 (Homo sapiens), P18031 (protein)
# chain: MEMEKEFEQIDKSGSWAAIYQDIRHEASDFPCRVAKLPKNKNRNRYRDVSPFDHSRIKLHQEDNDYINASLIKMEEAQRSYILTQGPLPNTCGHFWEMVWEQKSRGVVMLNRVMEKGSLKCAQYWPQKEEKEMIFEDTNLKLTLISEDIKSYYTVRQLELENLTTQETREILHFHYTTWPDFGVPESPASFLNFLFKVRESGSLSPEHGPVVVHCSAGIGRSGTFCLADTCLLLMDKRKDPSSVDIKKVLLEMRKFRMGLIQTADQLRFSYLAVIEGAKFIMGDSSVQDQWKELSHEDLEPPPEHIPPPPRPPKRILEPHNGKCREFFPNHQWVKEETQEDKDCPIKEEKGSPLNAAPYGIESMSQDTEVRSRVVGGSLRGAQAASPAKGEPSLPEKDEDHALSYWKPFLVNMCVATVLTAGAYLCYRFLFNSNT
# Legend:
# [1] = substrate: COc1c(CC=C(C)C)c(O)cc(O)c1-c1oc2cc(O)ccc2c1C; conditions: Homo sapiens; 10 uM
# Description: Competitive inhibition of human recombinant PTP1B at 10 uM by Lineweaver-Burke plot analysis
# [2] = substrate: COc1c(CC=C(C)C)c(O)cc(O)c1-c1oc2cc(O)ccc2c1C; conditions: Homo sapiens; 30 uM
# Description: Competitive inhibition of human recombinant PTP1B at 30 uM by Lineweaver-Burke plot analysis
# [3] = substrate: COc1c(CC=C(C)C)c(O)cc(O)c1-c1oc2cc(O)ccc2c1C; conditions: Homo sapiens; 20 uM
# Description: Competitive inhibition of human recombinant PTP1B at 20 uM by Lineweaver-Burke plot analysis
protein,measurement,setting,value
B1,Km,[1],3.5 µM
same,Km,[2],5.5 µM
same,Km,[3],4.2 µM
